From a protein production outcome set (Wang et al. 2014)

Assay: label from the status in PepcDB records

Sequence	protein production
MKVFFVVTHLLGSGHLSRTLVLARAHLKAGHEVTLISGGMPVPHLSHDGITLVQLPALRSDGVNFTRLLDDKGDVASETLMRDRREKLLSTFEEAAPDVLVTELFPFGRRSLSDEFLALLNMAKARKNPPRICCSIRDILAPPSKPSKAARVRDIITEFYDAIIVHSDPDVTPLAASWPVTEDIAEKLRYSGFVANPPAPMHPDAPGQGEVLVSAGGGAVGDALYAAALGAAKLNGDLHWRVLVGGADAPAKCAALKEGCPANTTIEPARPDFRQMLHRAKASVSMCGYNTALDILQSGTPAVFVPFDAGGEVEQSLRASALAKMAGIRVVNSVDLQPEALLNTVHSVVQDPRRGPQTRGLDGASRTAELLETLVEASGHAG	failed
MKVFVIGAGLMGRGIAIAIASKHEVVLQDVSEKALEAAREQIPEELLSKIEFTTTLEKVKDCDIVMEAVFEDLNTKVEVLREVERLTNAPLCSNTSVISVDDIAERLDSPSRFLGVHWMNPPHVMPLVEIVISRFTDSKTVAFVEGFLRELGKEVVVCKGQSLVNRFNAAVLSEASRMIEEGVRAEDVDRVWKHHLGLLYTLFGPLGNLDYIGLDVAYYASLYLYKRFGDEKFKPPEWLQEKIKKGEVGVKAGKGIYEYGPKAYEERVERLKKLLRFLGLE	not failed
MKVGSQVIINTSHMKGMKGAEATVTGAYDTTAYVVSYTPTNGGQRVDHHKWVIQEEIKLEHHHHHH	failed
MKVIIIGGETTAYYLARSMLSRKYGVVIINKDRELCEEFAKKLKATIIHGDGSHKEILRDAEVSKNDVVVILTPRDEVNLFIAQLVMKDFGVKRVVSLVNDPGNMEIFKKMGITTVLNLTTLITNTVEALIFPDEFSSIIPLEQ	not failed
MKVIKSNKVTNKFKVSILISTYNKEKFIENTLNNILAQTMNKNDFELIIVDDCSTDNTLDIISKKIESFSNYQFVQLDENSGTPAKPRNLSIDLSKGKYIMFVDGDDWLPSDALENLYTLLKSNKTDYATGLTKYVYSDRIARSGVALSKIAYNKIGLKNFRKSFYHLAPAGRMMKSSVIKKNNIRFPEMIFGEDLQFFAEVFFNTKNISTTQDVVYCANRYDENISLVKSEASTVLNRIKWQNEAYRYLTKKYKNNKIFANLLYRIINKDILEGKFYKKGFIKEIDTLLPVFQDILNTIDNDFNSLDYADDTLNQHALTLIKNGDKEEIIDFVNFYLKKDEKPLYLSNDKYYYVYKENKYKKRMHIILQKIIKKDENIFLKLYSKNSELKYLEIKNRKDPTNYTVLEIKKHLFKTGEYTVQFKANELSKGKLALTVLDKDLNGAAIKSGMQFDFYETVNGNLGYIKKLEHHHHHH	not failed
MKVKILVDSTADVPFSWMEKYDIDSIPLYVVWEDGRSEPDEREPEEIMNFYKRIREAGSVPKTSQPSVEDFKKRYLKYKEEDYDVVLVLTLSSKLSGTYNSAVLASKEVDIPVYVVDTLLASGAIPLPARVAREMLENGATIEEVLKKLDERMKNKDFKAIFYVSNFDYLVKGGRVSKFQGFVGNLLKIRVCLHIENGELIPYRKVRGDKKAIEALIEKLREDTPEGSKLRVIGVHADNEAGVVELLNTLRKSYEVVDEIISPMGKVITTHVGPGTVGFGIEVLERKR	not failed
MKVLIGGYTKKTSKGIYELPFIGEDNEAHLEKAENIISVGGPTYFQKDGDLVFTINNAGDEGGISAFKLSDHGSNEIDRHLTPGASPAYIGINKEKKLLYTANYHTAVLSVFQYSNSGKLALVAQTTHKAESLGPRPEQVDGPHPHFFDETPAGNLVSCDLGNDTVDFYRLENNELKHLAQYKNEAGFGDRHIVFSKDGNYFYVVGELSSQINVVKFNENTWEFEDIATYKTIPEDFTEHNGAAALYITNDGKYIYNSNRGHNSITVFKVNDDHTLSLIQRISTFGDFPRDFNWDETQKYVVAANQNTDNATLYLRNGGNGTLTPIQTEIPVPEGTRVLFTKLEHHHHHH	failed
MKVNTWFGVLELDSNGKTLSSEVFPKDIRELALRSLSLRESRQNLPPEGFDLKTAALECGFTESLSEYYSLLHKVTLETVKLQVSQALTPDQRIIQAVEALDDINETTNSLSERLFEWYGGYFPESGLSGEELAVFISRYGSRENLPPEDPHYLKAKNSMGAKLEAADEVLLKGLAESVCSLYERRKQIEAYIESSMEILAPNLALLAGPMLGARLISIAGSLEKLAAFPSSTIQVIGASKALFKHLRSRAPSPKHGIIYSHPLINTSPWWVRGKVARALAAKLSLAARIDFYSAKRNPSLENELEEKIRKIRAENPRPPQKRQEIRAKPKKKRRKLEHHHHHH	not failed
MKVVERYIMRRAFVVFLAALVWTLAIVWTTQVLAKIDLVTDSGQSSLTFFEVAALILPSIIPIVVPFALVVAVAQTLSVMNSDSELVVVNAAGASRWTIVRPIMLLALAASVFSFAVDNGIDPYARQKNRALVAQSRADLLSLIIQEGTFRKIEDGLFLQIGERLPDNRLGGIFVADSREEGVNLVYYAKTGSVVERGGEKVLMMNDGVIHRKTLTGDLSVIRFTSYAFDMSAFMAAASEVTLLPKDQTTQYLLNPNVNDKLYQQAPQQYRAEIDQRFSEWLYSMVFALIALAVAGDARSHREARVNPLITAITISLFVRWLGFFAASKADEVPQYAYMVYGVPIVASAVAIWFIVSNRTMELPVAWADWMTNLASRVGDGWNALKLRWSRRGTSGQGIG	failed
MKVVILGSGSYSGTPKPLCNCENCSIARRNPAFRRTRFSLYIEEGKILVDPSPDLHYHLERLNKKVENVFITHAHFDHIFGVPDLQVYKKLIISSNTLGIKVAKELSRLAFGSEVPSGYEWRYEELQFWNEYSFDNFRVIHFPVIHSLEIAGGYLFEIKGRRIGVTGDTGPEILKDEKVKKLLEGVDILIVEMTKRESIPGVHLGVSDSIEFAKVVGASYTVFAHISHTNYSHEVLEKRVRESGVQGEVARDFTIIEVLEHHHHHH	failed
MKVVVVDGGGLMGVETALCVRDHGHEVALVQAPGDPHAPLSDEVAEALRGCSVLVDLAHQPSVDIGTLAEDHGLVVDEAALVDSWAGSTGALLRAGAAAGVRHHVCLSVVGVDRIGREGVFRALRNREAMARRSGIPYSILRATQTFDAAEDIATAATEDWIVWVPPAEVRPVSLTDVATLLAHTAVTRPVNGVREIAGPEQFRLDAFVRTALLTEAEYRQVRTDALSPFYGARLRPRDLLPGPDAFIARTTYREWFTGRPAPDTTS	failed
MKVYPKVSIVMPVYNSERYLAEAIESILDQTYNDFEFIIVDDGSTDESYNIISSYANKDNRIIVISREHRGLVDSLNEGINIARGKYIARMDADDISINNRIEKQFEFLELNKDVDILGTRIEAFGDIDEKQKTIYNSAFSIKFDSQNIEQVFLTSCAIPHPSVMFKKDSIVKLRGYRKEYDTAEDYDLWLRAIRNGYKIVRMDECLIKYRVHNKSKTAVEMFNPKMVEYTMKAKIDYINDTNKKDKVDYLIWGASTGGKLVKKVVESTTDKFNLIGFIDKYKEGEVDECRIYKPEDLMKLHSDYVFIATLPGKEEADEFLKNCGLKKFKEYISLVLEHHHHHH	failed
MKWLDRLKIANYHRKRYKQFGNDKARTLGWQDEYSQISRFEALTRSLCLEAVSILDIGCGFGDLLEYIESQNQYPARYVGIDLQKQFITKARKKAFKTPVNFICGDFSKLVLPQSDYVFASGSLNYKSSNANHTIEMIEKMYRAARIGCVFNLLDEEKLPSMRMLESHNKVGVLRYCRWLCPDAQLIEGYSDHDFTIVMIKKAEPVS	failed
MKWNSNLYDHKHSFVAEYGKSMINFVNVGKDQKILDLGCGTGVLTNELAKNGATVIGTDLSKNMIDKAKTNYPNLIFQVKDATNLSFKNEFDTVFSNAVFHWISNQEKLLHSIYTCLKDNGTLICEFGAQNNISQIQTAFEKVIEQKGYSYCSPFFFPSKEEYKLLLDQAGFEVKHIIEYDRPTPLADGEKGLRNWICQFFASDLLEFSDEQKEQILFETEKLCKNSIWKNNQWVADYRRIQIIAVKNKNNGTK	failed
MKWPWWPVCVPLSKRLTLPLPSTANPVVQPSRLALACANRLFEAADNRERFLQALMTPPAYPATVLWCGEPAAALPFAALPPLPWQPPWVSRFVAGSPTGQHPLHAAGAYYCLDSSSVFAAVPLLTLPQEPSLVIDVCAAPGGKSLFAWRSLHPRYLICNETIGKRVGKLIGNLKRCRVHPVGVTSWDSEVLAAEFQGTADVVIVDAPCSGQSLLAKGQKAEGCFHPLTIRHNQRRQKRILAAATTLVRPGGWLLYSTCTFSQDENEDVAAWLMAKFPHLLPQPVPALAAYQSHLAAFPCYRLWPHQGEGAGAFTILWQHQGKGESNPLPDLGNRRAFGDRWRWQSSSQPA	failed
